Measured values: US20230183322A1 (PEKING UNIVERSITY, published 2023)

Tests used:
[1] = target: S protein of the novel coronavirus SARS-CoV-2 (SARS-CoV-2, UniProt P0DTC2 14-1273); assay: cell-based or functional assay
[2] = target: biotin-labeled SARS-COV-2 RBD domain (SARS-CoV-2, UniProt P0DTC2 319-541); assay: SPR, Biacore T200, biotin-RBD on SA chip, antibody as analyte

Binder	IC50 for neutralizing SARS-CoV-2 pseudovirus (Huh-7 cells, luciferase) [1]	Kd [2]
ABU-372 (antibody, V domains shown) VH: EVQLVESGGGLVQPGGSLRLSCAASGVTVSRNYMSWVRQAPGKGLEWVSVIYSGGSTDYADSVKGRFTISRHNSKNTLYLQMNSLRVEDTAVYYCARDGYGMDVWGQGTTVTVSS VL: DIQLTQSPSFLSASVGDRVTITCRASQGISSYLAWYQQKPGKAPNLLIYAASTLQSGVPSRFSGSGSGTEFTLTISSLQPEDFATYYCQQLNSYPPAFGPGTKVDIK	< 0.5 mg/L	< 0.02 µM
ABU-365 (antibody, V domains shown) VH: EVQLVESGGGLIQPGGSLRLSCAASGVTVSSNYMSWVRQAPGKGLEWVSLIYSGGSTYYADSVKGRFTISRDNSKNTLYLQMNSLRAEDTAVYYCARPIVGARSGMDVWGQGTTVTVSS VL: DIQMTQSPSSLSASVGDRVTITCQASQDINNYLNWYQQKPGKAPKLLIYDASNLETGVPSRFSGSGSGTDFTFIISSLQPEDIATYYCQQHDNLPVTFGGGTKVEIK	< 0.1 mg/L	< 0.01 µM
ABU-360 (antibody, V domains shown) VH: EVQLVESGGGLVQPGGSLRLSCAASEFIVSRNYMSWVRQAPGKGLEWVSVIYSGGSTFYADSVKGRFTISRDNSKNTLYLQMNSLRAEDTGVYYCARDRGLVSDYWGQGTLVTVSS VL: DIQMTQSPSSLSASVGDRVTITCQASQDINKYLNWYQQKPGKAPKLLIFDASHLETGVPSRFSASGSGTDFTFTISSLQPEDIATYYCHQYDNLPRTFGQGTRLEIK	< 0.1 mg/L	< 0.001 µM
ABU-361 (antibody, V domains shown) VH: EVQLVESGGGLIQPGGSLRLSCAASGLTVSSNYMSWVRQAPGKGLEWVSVIYSGGSTYYADSVKGRFTISRDNSTNTLYLQMNSLRAEDTAVYYCARDLDYYGMDVWGQGTTVTVSS VL: DIQLTQSPSSLSASVGDRVTITCRASQGISSYLAWYQQKPGKAPNLLIYAASTLQSGVPSRFSGSGSGTDFTLTISSLQPEDFATYYCQHLNSYPPITFGQGTRLEIK	< 0.5 mg/L	< 0.02 µM
ABU-368 (antibody, V domains shown) VH: EVQLVESGGGLIQPGGSLRLSCAASGFTVSSNYMSWVRQAPGKGLEWVSVIYSGGSTFYADSVKGRFTISRDNSKNTLYLQMNSLRAEDTAVYYCARDLGAYGMDVWGQGTTVTVSS VL: DIQLTQSPSFLSASVGDRVTITCRASQGISSYLAWYQQKPGKAPKLLIYAASTLQSGVPSRFSGSGSGTEFTLTISSLQPEDFATYYCQQLNSDLYTFGQGTKLEIK	< 0.5 mg/L	< 0.02 µM
ABU-369 (antibody, V domains shown) VH: EVQLVESGGGLIQPGGSLRLSCAASGLTVSSNYMSWVRQAPGKGLEWVSVIYSGGSTFYADSVKGRFTISRDNSKNTLYLQMNSLRAEDTAVYYCARDLYYYGMDVWGQGTTVTVSS VL: AIQLTQSPSSLSASVGDRVTITCRASQGISSYLAWYQQKPGKAPKLLIFAASTLQSGVPSRFSGSGSGTDFTLTISSLQPEDFATYYCQQLDSYPLFGGGTKVEIK	< 0.1 mg/L	< 0.01 µM
ABU-367 (antibody, V domains shown) VH: EVQLVESGGGLIQPGGSLRLSCAASGIIVSSNYMTWVRQAPGKGLEWVSVIYSGGSTFYADSVKGRFTISRDNSKNTLYLQMSSLRAEDTAVYYCARDLGPYGMDVWGQGTTVTVSS VL: DIQLTQSPSFLSASVGDRVTITCRASQGISSDLAWYQQKPGKAPNLLIYAASTLQSGVPSRFSGSGSGTEFTLTISSLQPEDFATYYCQQLNSDLYTFGQGTKLEIK	< 0.1 mg/L	< 0.001 µM
ABU-362 (antibody, V domains shown) VH: EVQLVESGGGLVQPGGSLRLSCAASGFTVSRNYMSWVRQAPGKGLEWVSVIYSGGTTHYADSVKGRFTISRHNSKNTLYLQMNSLRAEDTAVYYCARDLVVYGMDVWGQGTTVTVSS VL: DIQLTQSPSFLSASVGDRVTITCRASQGISSYLAWYQQKPGKAPKLLIYAASTLQSGVPSSFSGSGSGTEFTLTISSLQPEDFATYYCQQLNSYPLTFGGGTKVEIK	< 0.5 mg/L	< 0.02 µM
